Data as given in patent US6528270.

Target: BCR-ABL kinase available in the cell (the BCR-ABL expressing cells)
Experiment: 35S-methionine labelling, immunoprecipitation with anti-ABL or anti-GRB-2 antibodies

percent of the BCR-ABL kinase available in the cell complexed with GRB-2: 50 to 90%
Substance: GRB-2 (form and cells not named in the sentence) (from UniProt P62993 1-217)
